From patent US20120316071A1 (published 2012)
Numbering of substitutions follows the chain as printed. Names may count otherwise.

Tests used:
[1] = target: T1, Recombinant Human DLL4 (R&D Systems Cat#1506-D4/CF) (human, UniProt Q9NR61 27-524); assay: Multispot ECL
T1 construct: bought recombinant protein; also called rHuman DLL4; delta-like protein 4

[2] = target: T2, Recombinant Human DLL4 (delta-like protein 4) (human, UniProt Q9NR61 27-524); assay: ECL (MSD) binding assay, Fab on immobilised recombinant human DLL4
T2 construct: Bought recombinant protein; also called rHuman DLL4

[3] = target: T3, rHuman ErbB2/Fc Chimera, CF (R&D Systems Cat#1129-ER) (human, UniProt P04626 23-652); assay: ECL (MSD) multispot binding assay, antigen spotted on plate, 20 nM Fab;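 further: purified Fab incubated 1 h at 20 °C on antigen-spotted plate, bound Fab revealed with TAG detection antibody, ECL read, antigen signal divided by same-well blank, ratio ≥4 counted as hit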
T3 construct: Bought reagent; also called human epidermal growth factor 2 receptor; Fc part of the bought chimera not given

[4] = target: T4, rHuman EGF R/Fc Chimera, CF (R&D Systems Cat#344-ER) (human, UniProt P00533 25-645); assay: as above
T4 construct: Bought reagent; also called epidermal growth factor receptor; Fc part of the bought chimera not given

[5] = target: T5, rHuman HGF R/c-MET/Fc Chimera, CF (R&D Systems Cat#358-MT/CF) (human, UniProt P08581 25-932); assay: as above
T5 construct: Bought reagent; also called HGF R/Fc; hepatocyte growth factor receptor; Fc part of the bought chimera not given

[6] = target: T6, rHuman Notch-1/Fc Chimera, CF (R&D Systems Cat#3647-TK) (human, UniProt P46531 19-526); assay: as above
T6 construct: Bought reagent; Fc part of the bought chimera not given

[7] = target: T7, rHuman CD44/Fc Chimera, CF (R&D Systems Cat#3660-CD) (human, UniProt P16070 21-220); assay: as above
T7 construct: Bought reagent; Fc part of the bought chimera not given

[8] = target: T8, rHuman IGF-1 sR, CF (R&D Systems Cat#391-GR) (human, UniProt P08069 31-932); assay: as above
T8 construct: Bought soluble receptor; also called insulin-like growth factor-1 soluble receptor

[9] = target: T9, rHuman P-Cadherin/Fc Chimera, CF (R&D Systems Cat#861-PC) (human, UniProt P22223 108-654); assay: as above
T9 construct: Bought reagent; Fc part of the bought chimera not given

[10] = target: T10, rHuman Erythropoietin R/Fc Chimera, CF (R&D Systems Cat#963-ER) (human, UniProt P19235 25-250); assay: as above
T10 construct: Bought reagent; also called EPO R; EPO R/Fc; Fc part of the bought chimera not given
T10 sequence (looked up): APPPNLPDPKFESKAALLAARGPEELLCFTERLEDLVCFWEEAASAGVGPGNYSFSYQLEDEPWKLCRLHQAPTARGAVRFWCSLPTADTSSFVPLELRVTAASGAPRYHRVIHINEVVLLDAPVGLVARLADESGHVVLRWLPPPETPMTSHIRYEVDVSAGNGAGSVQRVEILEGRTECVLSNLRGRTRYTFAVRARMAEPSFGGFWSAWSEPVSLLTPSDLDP

[11] = target: T11, Recombinant Human DLL4 (R&D Systems Cat#1506-D4/CF) (human, UniProt Q9NR61 27-524); assay: as above
T11 construct: Bought recombinant protein; also called delta-like protein 4; rHuman DLL4

[12] = target: T1, Recombinant Human DLL4 (R&D Systems …); assay: 96-well plate ECL

T5 sequence (P08581 25-932, change not shown): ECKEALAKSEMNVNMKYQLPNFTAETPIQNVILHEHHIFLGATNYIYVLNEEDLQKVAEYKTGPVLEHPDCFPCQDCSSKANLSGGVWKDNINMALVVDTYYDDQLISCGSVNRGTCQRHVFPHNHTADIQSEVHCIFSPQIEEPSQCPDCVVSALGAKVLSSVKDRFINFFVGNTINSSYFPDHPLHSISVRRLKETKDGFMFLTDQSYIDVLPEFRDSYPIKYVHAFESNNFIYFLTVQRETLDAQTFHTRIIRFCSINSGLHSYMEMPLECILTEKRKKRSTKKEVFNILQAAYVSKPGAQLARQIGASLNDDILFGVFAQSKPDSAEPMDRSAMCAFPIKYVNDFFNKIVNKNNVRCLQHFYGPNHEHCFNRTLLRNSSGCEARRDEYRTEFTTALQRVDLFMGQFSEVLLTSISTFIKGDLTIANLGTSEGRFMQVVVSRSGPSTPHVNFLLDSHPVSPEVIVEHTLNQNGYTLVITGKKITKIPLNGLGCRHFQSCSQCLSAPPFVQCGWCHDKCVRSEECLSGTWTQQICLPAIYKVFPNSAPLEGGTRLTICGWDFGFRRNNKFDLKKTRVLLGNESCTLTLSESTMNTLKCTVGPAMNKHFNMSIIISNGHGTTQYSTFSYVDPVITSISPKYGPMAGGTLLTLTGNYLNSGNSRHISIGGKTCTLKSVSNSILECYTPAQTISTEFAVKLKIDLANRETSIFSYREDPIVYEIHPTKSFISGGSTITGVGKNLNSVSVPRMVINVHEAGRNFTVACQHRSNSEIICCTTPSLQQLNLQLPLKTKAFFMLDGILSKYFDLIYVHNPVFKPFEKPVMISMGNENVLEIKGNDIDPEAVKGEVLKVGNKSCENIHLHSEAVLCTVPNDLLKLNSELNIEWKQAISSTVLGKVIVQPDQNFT

B1: Fab VH1-46_IGHD6-6*01_IGHJ1*01 & A27_IGKJ1*01 (Fab, V domains shown)
VH: QVQLVQSGAEVKKPGASVKVSCKASGYTFTSYYMHWVRQAPGQGLEWMGIINPSGGSTSYAQKFQGRVTMTRDTSTSTVYMELSSLRSEDTAVYYCAREEYSSSSAEYFQHWGQGTLVTVSS
VL: not shown
notes: Fab; also called non-Hit
binding result [1]: no binding

B2: Fab VH1-46_IGHD6-6*01_IGHJ1*01 & A27_IGKJ1*01 (Fab, V domains shown)
VH: B1 VH
VL: not shown
notes: Germline Fab from the combinatorial library, with CH1 (plus His6 and Flag tags) and a kappa constant region from the expression plasmids
binding result [2]: no binding

B3: Fab VH1-46_IGHD6-6*01_IGHJ1*01 & L25_IGKJ1*01 (Fab, V domains shown)
VH: B1 VH
VL: EIVMTQSPATLSLSPGERATLSCRASQSVSSSYLSWYQQKPGQAPRLLIYGASTRATGIPARFSGSGSGTDFTLTISSLQPEDFAVYYCQQDYNLPPWTFGQGTKVEIKR
notes: Fab; also called non-Hit
binding result [1]: no binding

B4: Fab VH1-46_IGHD6-6*01_IGHJ1*01 & L25_IGKJ1*01 (Fab, V domains shown)
VH: B1 VH
VL: B3 VL
notes: as for B2
binding result [2]: no binding

B5: Fab VH3-23_IGHD2-21*01>3_IGHJ6*01 H100E/S108P/Y113G Y114P & V2-13_IGLJ2*01 (Fab, V domains shown)
VH: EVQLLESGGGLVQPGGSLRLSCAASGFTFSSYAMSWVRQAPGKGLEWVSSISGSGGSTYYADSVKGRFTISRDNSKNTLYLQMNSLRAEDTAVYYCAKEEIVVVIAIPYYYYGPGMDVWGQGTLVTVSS
VL: SSELTQDPAVSVALGQTVRITCQGDSLRSYYASWYQQKPGQAPVLVIYGKNNRPSGIPDRFSGSSSGNTASLTITGAQAEDEADYYCNSRDSSGNHLVVFGGGTKLTVL
notes: Tested as Fab made in E. coli (VH-CH1 with His and Flag tags; lambda CL); also called EPG Y114P
ECL multispot value [3]: 1.4 | ECL multispot value [4]: 1.2 | ECL multispot value [5]: 2.7 | ECL multispot value [6]: 1.4 | ECL multispot value [7]: 1.1 | ECL multispot value [8]: 0.9 | ECL multispot value [9]: 1.3 | ECL multispot value [10]: 2.3 | ECL multispot value [11]: 1.1

B6: Fab VH3-23_IGHD2-21*01>3_IGHJ6*01 H100E/S108P/Y113G Y114T & V2-13_IGLJ2*01 (Fab, V domains shown)
VH: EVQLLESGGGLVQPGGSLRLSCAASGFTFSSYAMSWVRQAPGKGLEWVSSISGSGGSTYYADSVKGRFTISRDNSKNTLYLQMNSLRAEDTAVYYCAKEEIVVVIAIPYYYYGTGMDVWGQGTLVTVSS
VL: B5 VL
notes: Tested as Fab made in E. coli (VH-CH1 with His and Flag tags; lambda CL); also called EPG Y114T
ECL multispot value [3]: 1.4 | ECL multispot value [4]: 1.3 | ECL multispot value [5]: 1.8 | ECL multispot value [6]: 1.8 | ECL multispot value [7]: 1.1 | ECL multispot value [8]: 1.1 | ECL multispot value [9]: 1.7 | ECL multispot value [10]: 2 | ECL multispot value [11]: 1.6

B7: Fab VH5-51_IGHD5-18*01>3_IGHJ4*01 G100K & V3-4_IGLJ1*01 (Fab, V domains shown)
VH: EVQLVQSGAEVKKPGESLKISCKGSGYSFTSYWIGWVRQMPGKGLEWMGIIYPGDSDTRYSPSFQGQVTISADKSISTAYLQWSSLKASDTAMYYCARRKYSYGYDYFDYWGQGTLVTVSS
VL: QTVVTQEPSFSVSPGGTVTLTCGLSSGSVSTSYYPSWYQQTPGQAPRTLIYSTNTRSSGVPDRFSGSILGNKAALTITGAQADDESDYYCVLYMGSGISYVFGTGTKVTVL
notes: Fab
fold ECL signal against the parent Fab [12]: ~2 fold

B8: Fab VH5-51_IGHD5-18*01>3_IGHJ4*01 G104T & V3-4_IGLJ1*01 (Fab, V domains shown)
VH: B7 VH with K100G, G104T
VL: B7 VL
notes: Fab
fold ECL signal against the parent Fab [12]: ~2 fold
